Data from IntAct's records for PubMed 36373674.

B1: SMC5-SMC6 complex localization factor protein 1 (Homo sapiens), Q9BQI6 (parent)
chain: MEDGTPKHIIQMTGFKMEEKEALVKLLLKLDCTFIKSEKYKNCTHLIAERLCKSEKFLAACAAGKWILTKDYIIHSAKSGRWLDETTYEWGYKIEKDSRYSPQMQSAPKRWREELKRTGAPGAFHRWKVVLLVRTDKRSDSLIRVLEAGKANVILPKSSPSGITHVIASNARIKAEKEKDNFKAPFYPIQYLGDFLLEKEIQNDEDSQTNSVWTEHSNEETNKDFRKDAGFLEMKGALRETMYRTQKEMQNHEDVNVGSILIQHHKKEKFSGSSKDLKFVKMRNTFGSHTYENQKEIKKKDEDIQRSYTLRRKRKKGKESNCKKGVEHEKIKSTLRRHIYNRDQKEMKNSIFAEYAKESKAMAIKTDVDVVEIKNTLRKHIYRAQAVRYNCIRIDKQPVYNVEVKNAEFPRGVLNLIESLIEGHFFKEAIEELSTLQAHYIPPVCVLHALLENVLQDNIDTFSGRYFHILSALLHLHPPWKSPAMSRYYLELFQCPTCMKGAWSLVEVLIRSCLFNESFCHQISENIGSKVLHLTLLKFFFNLIESEVQHLSQKLYDWSDSQNLKITGKAMLLEIFWSGSETSGLLTKPVNMLLEWTIYSHKEKFKSNDVFKHELAYLLAGILGAAIDYWIFLGLKMGRNVMRHMSDDLGSYVSLSCDDFSSQELEIFICSFSSSWLQMFVAEAVFKKLCLQSSGSVSSEPLSLQKMVYSYLPALGKTGVLGSGKIQVSKKIGQRPCFDSQRTLLMLNGTKQKQVEGLPELLDLNLAKCSSSLKKLKKKSEGELSCSKENCPSVVKKMNFHKTNLKGETALHRACINNQVEKLILLLSLPGIDINVKDNAGWTPLHEACNYGNTVCVQEILQRCPEVDLLTQVDGVTPLHDALSNGHVEIGKLLLQHGGPVLLQQRNAKGELPLDYVVSPQIKEELFAITKIEDTVENFHAQAEKHFHYQQLEFGSFLLSRMLLNFCSIFDLSSEFILASKGLTHLNELLMACKSHKETTSVHTDWLLDLYAGNIKTLQKLPHILKELPENLKVCPGVHTEALMITLEMMCRSVMEFS
partner: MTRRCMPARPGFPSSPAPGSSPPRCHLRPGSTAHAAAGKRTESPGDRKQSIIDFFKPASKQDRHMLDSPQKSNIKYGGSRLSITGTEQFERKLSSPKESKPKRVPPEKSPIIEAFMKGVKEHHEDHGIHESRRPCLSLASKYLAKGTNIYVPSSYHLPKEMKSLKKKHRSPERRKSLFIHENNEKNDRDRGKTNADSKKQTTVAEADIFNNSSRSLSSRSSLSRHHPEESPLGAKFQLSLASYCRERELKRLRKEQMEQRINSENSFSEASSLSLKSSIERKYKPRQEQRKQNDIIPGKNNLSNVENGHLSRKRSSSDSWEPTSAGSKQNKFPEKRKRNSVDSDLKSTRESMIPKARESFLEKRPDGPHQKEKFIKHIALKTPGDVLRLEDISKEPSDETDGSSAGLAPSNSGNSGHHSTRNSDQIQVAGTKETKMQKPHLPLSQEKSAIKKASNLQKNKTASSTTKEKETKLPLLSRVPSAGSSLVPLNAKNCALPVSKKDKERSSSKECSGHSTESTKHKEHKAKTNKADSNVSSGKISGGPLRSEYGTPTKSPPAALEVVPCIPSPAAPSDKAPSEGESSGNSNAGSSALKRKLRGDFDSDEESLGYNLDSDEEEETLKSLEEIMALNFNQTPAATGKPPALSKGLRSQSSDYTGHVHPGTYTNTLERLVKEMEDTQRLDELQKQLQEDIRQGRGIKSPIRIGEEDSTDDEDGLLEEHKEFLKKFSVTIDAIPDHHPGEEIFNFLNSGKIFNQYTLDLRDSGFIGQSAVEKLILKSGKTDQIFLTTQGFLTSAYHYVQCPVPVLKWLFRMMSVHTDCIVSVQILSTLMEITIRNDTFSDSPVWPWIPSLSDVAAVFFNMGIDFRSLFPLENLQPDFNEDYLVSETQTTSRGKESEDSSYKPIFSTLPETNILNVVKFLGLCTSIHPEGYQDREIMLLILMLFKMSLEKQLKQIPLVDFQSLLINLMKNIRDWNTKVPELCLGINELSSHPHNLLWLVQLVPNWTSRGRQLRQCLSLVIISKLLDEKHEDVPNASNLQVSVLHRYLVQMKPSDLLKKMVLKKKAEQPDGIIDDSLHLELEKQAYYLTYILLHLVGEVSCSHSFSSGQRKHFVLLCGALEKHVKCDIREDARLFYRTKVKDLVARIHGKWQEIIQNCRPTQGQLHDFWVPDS
B2: SMC5-SMC6 complex localization factor protein 2 (Homo sapiens), Q8IX21 (parent)
chain: B1 partner
partner: B1 chain

Variants of: B1
Conditions: with slf2_human SLF2, Q8IX21
For G464D;H468E;A472D;L476E, the “effect of a mutation on the interaction” value was “disrupting interaction strength”.
With F957E;L964E the “effect of a mutation on the interaction” value was “disrupting interaction strength”.
In the case of A1042D;I1045E;M1049E, the “effect of a mutation on the interaction” value is reported as “disrupting interaction strength”.

Variants of: B2
Conditions: with slf1_human SLF1, Q9BQI6
In the case of L775E;F786E;F792E, the “effect of a mutation on the interaction” value is reported as “disrupting interaction strength”.
With C820W;I821W the “effect of a mutation on the interaction” value was “with no effect”.
In the case of M831R;I835R, the “effect of a mutation on the interaction” value is reported as “disrupting interaction strength”.
With P957D;V959D;W1006A the “effect of a mutation on the interaction” value was “disrupting interaction strength”.
